These results are taken from publication PMC3273806.

Experiment [1] deals with FLAG-tagged RAD18 expressed in human cells (human) (UniProt Q9NS91). In words: quantitative western blotting against a reference complex. For orientation: A western blot detects proteins with antibodies after separation by electrophoresis.
Experiment [2] has as its target human RAD18, wild type, His-tagged or FLAG-tagged (human) (UniProt Q9NS91). The experiment can be described thus: quantitative SDS-PAGE.
Experiment [3] addresses ^HisRAD18^ΔN1 (residues 113-495) (human) (UniProt Q9NS91). In words: quantitative SDS-PAGE.
Experiment [4] addresses RAD18^ΔC1 (residues 1-341), His-tagged or FLAG-tagged (human) (UniProt Q9NS91). The experiment can be described thus: quantitative SDS-PAGE.
Experiment [5] concerns the target untagged RAD18 expressed in human cells (human) (UniProt Q9NS91). In words: quantitative western blotting against a reference complex.

human RAD18, wild type, His-tagged or FLAG-tagged, sequence (Q9NS91 whole entry): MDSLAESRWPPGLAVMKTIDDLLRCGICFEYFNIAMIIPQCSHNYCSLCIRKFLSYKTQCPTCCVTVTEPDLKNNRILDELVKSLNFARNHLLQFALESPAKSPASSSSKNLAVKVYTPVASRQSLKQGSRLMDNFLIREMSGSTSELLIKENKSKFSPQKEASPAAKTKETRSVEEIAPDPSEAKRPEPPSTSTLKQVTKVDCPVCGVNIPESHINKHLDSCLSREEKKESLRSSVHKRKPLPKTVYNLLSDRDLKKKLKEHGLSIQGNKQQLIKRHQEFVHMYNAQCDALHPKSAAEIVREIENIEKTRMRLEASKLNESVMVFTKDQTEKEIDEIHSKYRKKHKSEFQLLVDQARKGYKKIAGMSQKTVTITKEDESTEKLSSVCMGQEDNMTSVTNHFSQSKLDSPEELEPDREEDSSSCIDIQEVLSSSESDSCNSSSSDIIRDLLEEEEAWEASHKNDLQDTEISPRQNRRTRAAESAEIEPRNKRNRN
^HisRAD18^ΔN1 (residues 113-495) (human), sequence (Q9NS91 113-495, stated change not applied): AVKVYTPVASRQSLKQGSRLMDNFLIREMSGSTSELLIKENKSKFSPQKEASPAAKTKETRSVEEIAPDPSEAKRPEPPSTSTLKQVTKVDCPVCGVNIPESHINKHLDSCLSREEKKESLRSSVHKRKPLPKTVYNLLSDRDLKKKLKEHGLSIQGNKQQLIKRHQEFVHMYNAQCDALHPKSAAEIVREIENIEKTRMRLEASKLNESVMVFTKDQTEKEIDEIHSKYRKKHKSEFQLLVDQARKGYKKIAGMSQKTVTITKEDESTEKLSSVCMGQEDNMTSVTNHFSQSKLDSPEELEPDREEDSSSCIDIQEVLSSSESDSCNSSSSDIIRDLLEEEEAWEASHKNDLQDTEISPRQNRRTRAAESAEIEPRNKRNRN
human RAD18, wild type, His-tagged or FLAG-tagged (human), sequence (Q9NS91 whole entry, the tested form may be a part): as the sequence (Q9NS91 whole entry) above
FLAG-tagged RAD18 expressed in human cells, sequence (Q9NS91 whole entry): as above
untagged RAD18 expressed in human cells, sequence (Q9NS91 whole entry): as above
FLAG-tagged RAD18 expressed in human cells (human), sequence (Q9NS91 whole entry): as above
untagged RAD18 expressed in human cells (human), sequence (Q9NS91 whole entry): as above
FLAG-tagged human RAD6A, sequence (P49459 whole entry): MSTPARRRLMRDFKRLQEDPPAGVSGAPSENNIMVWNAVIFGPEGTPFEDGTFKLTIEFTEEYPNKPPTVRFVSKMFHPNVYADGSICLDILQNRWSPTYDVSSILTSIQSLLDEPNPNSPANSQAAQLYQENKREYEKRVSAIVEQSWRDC
untagged RAD6A expressed in human cells, sequence (P49459 whole entry): as above
human RAD6A, sequence (P49459 whole entry): as above
HA-tagged RAD6A expressed in human cells, sequence (P49459 whole entry): as above
RAD18^ΔC1 (residues 1-341), His-tagged or FLAG-tagged (human), sequence (Q9NS91 1-341, stated change not applied): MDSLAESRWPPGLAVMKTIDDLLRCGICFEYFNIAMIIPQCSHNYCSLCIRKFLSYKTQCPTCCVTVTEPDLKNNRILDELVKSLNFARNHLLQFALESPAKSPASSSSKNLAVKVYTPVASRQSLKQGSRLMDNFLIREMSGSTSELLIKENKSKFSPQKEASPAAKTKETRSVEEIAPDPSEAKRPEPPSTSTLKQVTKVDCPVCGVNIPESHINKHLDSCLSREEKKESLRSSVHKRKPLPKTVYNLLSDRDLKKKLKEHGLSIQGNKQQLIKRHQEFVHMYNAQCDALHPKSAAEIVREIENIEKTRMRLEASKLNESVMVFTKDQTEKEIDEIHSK

In experiment [1], “FLAG-tagged RAD18 expressed in human cells (from UniProt Q9NS91 1-495) (enzyme)” yielded a stoichiometry N of 2. In turn, “FLAG-tagged human RAD6A (from UniProt P49459 1-152) (enzyme)” showed a stoichiometry N (RAD6A per RAD18) in experiment [2] of 0.5. “HA-tagged RAD6A expressed in human cells (from UniProt P49459 1-152) (enzyme)” yielded a stoichiometry N (RAD6A per RAD18) in experiment [1] of 0.5. The substance “human RAD6A (from UniProt P49459 1-152) (enzyme)” had a stoichiometry N (RAD6A per HisRAD18ΔN1) in experiment [3] of 1. Take “human RAD18, wild type, His-tagged or FLAG-tagged (from UniProt Q9NS91 1-495) (enzyme)”: in experiment [2], the ratio of HisRAD18 to FLAGRAD18 in the complex (HisRAD18 per FLAGRAD18) is 1. The substance also returned a stoichiometry N (FLAGRAD18 per HisRAD18ΔC1) in experiment [4] of 1. “untagged RAD6A expressed in human cells (from UniProt P49459 1-152) (enzyme)”: the stoichiometry N (RAD6A per RAD18) in experiment [5] came to 0.5. Take “untagged RAD18 expressed in human cells (from UniProt Q9NS91 1-495) (enzyme)”: the stoichiometry N in experiment [5] stood at 2.

A word on the stoichiometry N: it is a count of units in the complex or per binding partner.
